From the nanobody polyreactivity screen of Harvey et al. (2022)

Test: yeast display, Sf9 membrane polyspecificity reagent, FACS + sequencing; frameworks hold sequencing errors
In short: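 A nanobody's polyreactivity label depends on the gate it was sorted from. Yeast display cells were stained with 10% biotinylated, detergent-solubilized Sf9 membrane reagent for 1 hour at 4 °C, enriched on streptavidin microbeads and sorted by FACS. The low and high (top ~1%) gates were set on anti-HA fluorescence for expression and streptavidin fluorescence for reagent binding.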

Sequence | polyreactivity (PSR sort gate)
QVQLVESGGGLVQAGGSLRLSCASSGSIFYVNTMGWYRQAPGKERELVATISVSGGSTNYADSVKGRFTISRDNAKNTVYFQMNSLKPEDTAVYYCAEAYLRYYDGPYDYWGQGTQVTVSS | low polyreactivity
QVQLVESGGGLVQAGGSLRLSCAASGLTFWRYVMGWYRQAPGKERELVATISIGGSTNYADSVKGRVTISRDNAKNTVYLQMNSLKPEDTAVYYCAAKFRGDVFPYYYWGQGTQVTVSS | high polyreactivity
QVQLVESGGGLVQAGGSRRLSCAASGFTFPHYLGRYRQAPGKERELVAAIIVSGGSTSYADSVKGRFTMSRDNAKNTVYLQMNSLKPEDTAVYYCAKDLRFRLFSYPSDYWGQGTQVTVSS | low polyreactivity
QVQLVESGGGLVQAGGSLRLSCAASGSIFPYYALGRYRQAPGKERELVADITSSGGSTYYADSVKGRFTISRDNAKNTVYLQMNSLKPEDTAVYYCAALYWFYVYPFTEYDYWGQGTQVTVSS | low polyreactivity
QVQLVESGVGLVQAGGSHRLSCAASGFTFLINAMGWYRQEPWKERELVAAIRSGGSTNYADSVKGRFTISRDNAKNTVYLQMNSLKPEETAVYYCAARRYYPDKYRYGYWGQGTQVTVSS | high polyreactivity
QVQLVESGGGLVQAGGSLRLSCAASGSIFRVYMGWYRQAPGKERALVATIRWSSGSTYYADSVKGRFTISRDNAKNTVYLQMNSLKPEDTAVYYCAVKGPYYDDYDYWGQGTQGTVSS | low polyreactivity
QVQLVESGGGLVQAGGSLRLSCAASGSTFTSYVMGWYRQAPGKEREFVAAITSSGGDTYYADSVKGRFTISRDNAKNTVYVQMNSLKPEDTEVYYCATRSYYRSSYYRNRYPYDYWGQGTLVTVSS | low polyreactivity
QVQLVESGGGLVQAGGSLRLSCAASGFIFQPYAMGWYRQAPVKERELVAAITSRGGRTYYADSVKGRFTISRDNAKNTVYLQMNSLKPEDTAVYYCNADIYASEYYYWGQGTQVTVSS | low polyreactivity
QVQLVESGGGLVQAGGSLRLSCAASGFIFRYYAMGWYRQAPGKERELVAAINRGGGTNYADSVKGRFTISRDNAKNTVYLQMNSLKPEDTAVYYCAAVIRTVRERYGYWGQGTQVTVSS | high polyreactivity
QVQLVESGGGLVQAGGSLRLSCAASGSIFGTNAMGWYRQAPGKERELVAAITGRGGSTYYADSVKGRFTISRDNAKNTVYLQMNSLKPEDTAVYYCAVKISTYTYGYWGQGTQVTVSS | high polyreactivity
QVQLEESGGGLVQAGGSLRLSCAASGSIFSGYTMGWYRQAPGKERELVAGISYRGGSTYYADSVKGRFTISRDNAKNTVYLQMNSLKPEDTAVYYCAARVWWRYEYWGQGTQVTVSS | high polyreactivity
QVQLVESGGGLVQAGGSLRLSCAASGSIFETYAMGWYRQAPGKEWELVAAISRTSGRTYYADSVKGRFTISRDNAKNTVYLQMNSLKPDDTAVYYCAAVVRNPGTYDYWGHGTQVTVSS | high polyreactivity
QVQLVESGGGLVQAGGSLRLSCDASGRIFGYTMGWYIQAPGKERELVAAISKSGGSTYYADSVKGRFTISRDNAKNTVYLQMNSLKPEDTAVYYCNKPQRILYDYWGQGTQVTVSS | high polyreactivity
QVQLVESGGGLVQAGGSLRLSCAASGIIFRWYTMGWYRQAPGKERELVAAISSGGSTYYADSVKGRFTISRDNAKNTVYLQMNSLKPEDTAVYYCAARYITTYAYGYWGQGTQVTVSS | high polyreactivity
QVKLVDSGGGLVQAGGSLRLTCAASGRTLGRNGMGWYRQDPGKERELVAAISLSGGRSYADSVKGRFTISRDNAKNSVYLQMNSLKPEDTAVYYCAKVGYSRRYAYNVYYWGQGTQLTVSS | low polyreactivity
QVQIVESRGGLVQAGGSLRLSCAASGSNLHYYTMGWYRQAPGNEREFVAGISWSGGRTYYADSVKGRFTISRDNAKNTVYFQMNSRKPEDTAVYYCNRQARRGFHRYHLYGYGYWGQGTQVTVSS | high polyreactivity
QVKLVESGGGLVQAGGSLRLSCAASGSTFPGYAMGWYRQAPGKERELVAAGGSTYYADSVKGRFTISRDNAKNTVYLQMNSLKTEDTAVYYCAATWGSVQKGTYYYWGQGTQVTVSS | low polyreactivity
QVQLVESGGGLVQAGGRLRLSCAASGGIFSTYTRGWYRQEPGKERELVAAITTGNSTYYADSVKGRFTISRDNAKNTVYLQMNSLKPEDTAVYYCAADTIGYHYWYDYWGQGTQVTVSS | low polyreactivity
QVQLVESGGGLVQAGGSLRLSCAASGSTFYYNTMGWYRQAPGKERELVAAITSGDTTYYADSVKGRFTISRDNAKNTVYLQMNSLKPEDTAVYYCAAAWPYARYDYWGQGTQVTVSS | low polyreactivity
QVQLVESGGGLVQAGGSLRLSCAASGRIFGHYVMGWYRQAPGKERELVAAITWRGGSTYYADSVKGRFTISRDNAKNTVYLQMNSLKPEDTAVYYCNRALPGYGLRRDYWGQATQVTVSS | high polyreactivity
KVQLVESGGGLVQAGGSLRLSCAASGSTFYQYAMGWYRQAPGKERELVAVITGSGGSTYYADSVKGRFTISRDNAKNTVYLQMNSLKPEDTAVYYCAAGARYFKYRTTSLGGNYWGQGTQVTVSS | high polyreactivity
QVQLVESGRGLVQAGGSLRLSCAASGRTFYFYAMGWYRQAPGKEREFVAAITSSGVSTYYADSVKGRFTISRDNAKNTVYFQMISQKPEDSAVYYCAADDWDWENDYWGQGTQVTVSS | low polyreactivity

Sequence | polyreactivity (PSR sort gate)
QVQLVESVGGLAQSRGSLRLSCAASGRTFFPNAMGWYRQAPGKERELVAAITNGDSTHYADSVKRRFTISRDNAKNTVYLQMNSLKPEDTADYYCAAEDHYEGYGGYYWGQVTQVTVSS | low polyreactivity
QVQLVESGGGLVQAGGSLRLSCAASGFNFSYYAMGWYRHAPGKEWELVAAISRSGGSTYYADSVKGRFTISRDNAKNTVYLQMNSLKPEDTAVYYCAKRIKDRSGEAYVGLYYWGQGTQVTVSS | high polyreactivity
QVQLVETGGGLVQAGGSLRISCAASGSTFVDYDMGWYRQAPGKERELVAGITTGGSTNYADSVKGRFTISRDNAKNTVYLQMNSLKPEDTAVYYCNADSYPNLVPDYLYYWYEYWGQGTQVTVSS | low polyreactivity
QVQLVESGGGLVQAGGSLRLSCAASGFIFITVNAMGWYRQAPGKEREFVAAITRSGTGTYYADSVKGRFTISRDNAKNTVYLQMNSLKPVDTAVYYCAADATSTGAYDYWGQGTQVTVSS | low polyreactivity
QVQLVESGGGLVQAGGSLRLSCAASGRIFSYNAMGWYRPAPGKERELVASISWSGGRTYYADSVKGRFTISRDNAKNTVYLQMNSLKPEDTAVYYCAVRYRGYGYDWGQGTQVTVSS | high polyreactivity
QVQLVESGGGFVQAGGSLRLSCAASGFTFFPYAMGWYRQAPGNEWELVAAISWSGGRTYYADSVKGRFTISRDNAKNTVYLHMNSLKPEDTAVYYCNARWRSGPRAYDYWGHGTQVTVSS | high polyreactivity
QVQLVESGGGLVQAGGSLRISCAASGRTFLSNAMGWYRQAPGKERELVAAISNGDNTYYADSVKGRFTISRDNAKNTVYLQMNSLKPEDTAVYYCAADQYWSWIYYPVVEYDYWGQGTQVTVSS | low polyreactivity
QVQLVESGGGLVQAGGSLRLSCAASGSTFVRYAMGWYRQAPGKERELVAAITGTGSSTYYADSVKGRFTISRDNAKNTVYLQMNSLKPEDTAVYYCAKRWRTVFGYDYWGQGTQVTVSS | high polyreactivity
QVQLVESGGGLVQAGGSLRLSCAASGLTFAVYAMGWYRQAPGKERELVASITRSGGSTYYADSVKGRFTISRDNAKNTVYLQMNSLKPEDTAVYYCAAQTIYSGRYYYYSRYDYWGQGTQVTVSS | high polyreactivity
QVQLVESGGGLVQAGGSLRLSCAASGRIFGIYAMGWYRQAPGKERVLVAAISRSGGSTYYADSVKGRFTISRDNAKNTVYLQMNSLKPEDTAVYYCAADSRSWTGYYYWGQGTQVTVSS | high polyreactivity
QVQLEESGGGLVQAGGSLRLSCAASGYTSLYYGMGWYRQAPGKERELVASISRGGSTYADSVKGRFTISRDNAKNTVYLLMNRLKPEDTAVYYCNADGGWDDPWSGWVEYDYWGQGTQVTGSS | low polyreactivity
QVQLVESGGGLVQAGGSLRLSCAASGSIFVYYAMGWYRQAPGKERELVAAINSGSITKYADSVKGRFTISRDNAKNTVYLQMNSLKPEYTAVYYCAARYDNTYRTETSYPRYYSWGQGTQVTVSS | high polyreactivity
QVQLVESGGGLVQAGGSLRLSCAASGSTFGRYVMGWYRQAPGKERELVAAISKNAGSTYYADSVKGRFTISRDNAKNTVYLQMNSLKPEDTAVYYCNAQSFREYGYWGQGTQVTVSS | high polyreactivity
QVQLQESGDGLVQAVGSLRLSCAASGYISGYYYMGWYRQAPGKERELVAGIEAFGSSTNYADCVKGRFTISRDNAKNTVYLQMNSPKPEDTAVYYCAAEYDDWDYHWYWGQGTQVTVSS | low polyreactivity
QVQLVESGGGLVQAGGSLRLSCAASGRTFKFNTMGWYRQAPGKEREVVAAISWTGAITHYADSVKGRFTISRDNAKNTVYLQMNSLKPEDTAVYYCNSDPYRRIYNYWGQGTQVTVSS | low polyreactivity
QVLLQESGGGLVQAGGSLRLSCAASGNIFSAGGMGWYRQAPVKELELVAGIGTGTSTNYADSVKGRFTISRDNAKNTVYLQMNSLKPEDTAVYYCAADSYPAYLGFVGFDYWGQGTQVNVSS | low polyreactivity
QVQLVESGGRLVQAGGSLRLSCAASGSTFHSYVMGWYRQAPGKERELVAAITSRGGSTNYADSVKGRFTISRDNAKNTVYLKMNSLIPEDTAVYYCAADCYWGWSYFRYDYWGQVTQVTVSS | low polyreactivity
QVQLVESGGGIVQAGGSLRLSCAASGSISFLYTMGWYRQAPGKERELVAAITGSTASTYYADSVKGRFTISRDNAKNTVYLQMNSLKPEDTAVYYCAAYWYAEGYWVSRDYWGQGTQVTVSS | low polyreactivity
QVQLVESGGGLVQAGGSLRLSCAPSGRIFRKYAMGWYRQAPGKERELVAAINSRGGRTYYADSVKGRFTISRDNAKKTVYLQMNSLKPEDTAVYYCAASVGWGMDYWGQGTQVTVSS | high polyreactivity
QVQLVESGGGLVQAGGSLRLSCAASGRSFTGNAMGWYRQAPGKERELVAAISWRGARTYYADSVKGRFTISRDNAKNTVYFQMNSLKPVDTGVYYCAAAYRGYARHDYWGQGTQVTVSS | high polyreactivity
QVQLVESGGGLVQSGGSLRLSCAASGSTFHTYAMGWYRQAPGKERELFASIRTSGGSTNADSVKGRFTISRDNAKNTVYLQMNSLNPEDTAVYYCAAYYFYGLYDAYYYWGQGTEVTVSS | low polyreactivity
